Assay results as given in US10058586B2, “Use of human small leucine zipper protein in adipocyte differentiation procedure” (Korea University Research and Business Foundation, priority 2013, dated 2018).

How the values were obtained:
PPARγ2 = biological target: T1, PPARγ2 (Homo sapiens, UniProt P37231); assay: Fluorescence microscopy, subcellular localization of sLZIP and PPARγ2 in C3H10T1/2 cells; format: cell-based; details: GFP-PPARγ2 and Flag-sLZIP
T1 sequence (P37231 1-505): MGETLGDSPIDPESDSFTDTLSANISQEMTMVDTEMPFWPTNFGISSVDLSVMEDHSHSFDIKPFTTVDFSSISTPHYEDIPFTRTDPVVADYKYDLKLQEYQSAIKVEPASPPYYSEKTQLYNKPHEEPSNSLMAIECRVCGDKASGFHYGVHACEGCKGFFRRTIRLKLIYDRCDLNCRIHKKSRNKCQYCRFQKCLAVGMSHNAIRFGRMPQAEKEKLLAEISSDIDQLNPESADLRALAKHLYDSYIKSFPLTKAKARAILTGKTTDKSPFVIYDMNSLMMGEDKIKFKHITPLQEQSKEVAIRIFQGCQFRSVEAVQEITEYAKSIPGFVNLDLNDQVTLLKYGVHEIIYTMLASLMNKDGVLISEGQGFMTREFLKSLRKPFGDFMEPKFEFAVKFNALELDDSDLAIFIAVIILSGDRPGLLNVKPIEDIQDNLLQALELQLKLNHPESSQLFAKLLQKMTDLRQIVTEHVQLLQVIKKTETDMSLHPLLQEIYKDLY
Procedure: C3H10T1/2 cells were transiently ci-transfected with Flag-sLZIP, GFP-PPARγ2 or GFP-sLZIP, and HDAC3 was grown on cover slip. After 24 hours, the cells were fixed with 4% paraformaldehyde for 10 minutes and permeabilized 0.2% Triton-X 100 for 5 minutes. The cells were incubated with 1% BSA for one hour, and then incubated with anti-Flag and anti-HDAC3 antibodies overnight at 4° C. The cells were washed with PBS, and then were incubated with Texas Red-labeled antibodies for 2 hours. A cover slide was washed with PBS, and mounted on and examined using a LSM 510 META confocal microscopy (Carl Zeiss, Jena, Germany).
In order to examine whether the transcriptional activity of PPARγ2 is regulated by interaction with sLZIP, interaction between sLZIP and PPARγ2 was examined. For this purpose, 293T cells were transfected with GST-sLZIP and Myc-PPARγ2. Cell lysates were obtained and GST pull-down analysis was performed using a glutathione 4B bead. A protein complex was analyzed in SDS-PAGE and then immunoblotted with specific antibodies (FIG. 2A). […] Proteins bound to the bead were analyzed in SDS-PAGE, and then immunoblotted with anti-PPARγ2 and anti-His antibodies (FIG. 2C). GFP-PPARγ2 and Flag-sLZIP constructs were expressed in C3H10T1/2 cells, and analyzed using mouse anti-Flag and Texas Red-labeled anti-mouse antibodies under a fluorescence microscope. […]

[1] = tested on: CREB element in the FABP4 enhancer region; assay: Electrophoretic mobility shift assay (EMSA) of His-sLZIP with FABP4 enhancer probes; format: binding
Procedure: T4 polynucleotide kinase (Promega, Madison, Wis.) was used to label 5′-terminal of oligonucleotides with [γ-^32P]ATP (Perkin Elmer, Waltham, Mass.). According to instructions of the manufacturer, unbound nucleotides were removed through tubes in a Bio-Gel P-6 spin column (Bio-Rad, Inc., Hercules, Calif.). His-sLZIP proteins were pre-incubated for 20 minutes at room temperature in a 5× binding buffer [10×GRAB, 20 mM of DTT, poly(deoxyinosinic-deoxycytidylic), Sigma, St. Louis] and radiolabeled probes. Reaction mixtures were loaded in wells of 4% nondenaturing polyacrylamide gels, and subjected to electrophoresis for 45 minutes at 180 V in a 0.5×TBE buffer. For competition experiments, a binding reaction was incubated for 30 minutes with 100-fold molar excess of unlabeled CREB binding oligonucleotides before radiolabeled oligonucleotides were added. For supershift analysis, anti-His antibodies were added to a reaction mixture on ice for additional 30 minutes.
A DNA binding ability of sLZIP with various elements in the FABP4 enhancer region was examined. For this purpose, recombinant His-sLZIP fusion proteins (3 μg) were incubated with γ-^32P-labeled oligonucleotide probes containing expected CREB binding elements (FIG. 7B). The γ-^32P-labeled oligonucleotide probes were incubated while an amount of purified His-sLZIPs was increased. For competition analysis, unlabeled CREB oligonucleotide probes of 100-fold excess were used and His antibodies were added to a reaction mixture on ice for additional […] (FIG. 7C). His-sLZIP proteins were subjected to EMSA using wild type and CREB mutant (TGATGTCA→TGGGGTCA) probes (FIG. 7D). 293T cells were temporarily transfected with PPARγ2 (0.5 μg), β-galactosidase (0.1 μg), FABP4 enhancer-luciferase reporter genes (0.2 μg) and sLZIP mutants at different contents (0.1 to 0.5 μg). After the transfection, the cells were stimulated with 10 nM of RZD (FIG. 7F). A luciferase activity was normalized to a β-galactosidase activity and represented as a relative activity (fold change). All experiments were repeated three times, and bars in the graph represent mean±standard deviation. ChIP analysis was performed using HA-sLZIP-specific antibodies and then PCR was performed. Input chromatins or immunoprecipitated chromatins were subjected to PCR and used as a control group for variables.

B1: sLZIP: human small leucine-zipper protein, isoform of LZIP, 354 amino acids, no transmembrane domain; GenBank FJ263669, SEQ ID NO: 1 (protein, listed as Homo sapiens)
chain: MELELDAGDQDLLAFLLEESGDLGTAPDEAVRAPLDWALPLSEVPSDWEVDDLLCSLLSPPASLNILSSSNPCLVHHDHTYSLPRETVSMDLESESCRKEGTQMTPQHMEELAEQEIARLVLTDEEKSLLEKEGLILPETLPLTKTEEQILKRVRRKIRNKRSAQESRRKKKVYVGGLESRVLKYTAQNMELQNKVQLLEEQNLSLLDQLRKLQAMVIEISNKTSSSSMYSSDTRGSLPAEHGVLSRQLRALPSEDPYQLELPALQSEVPKDSTHQWLDGSDCVLQAPGNTSCLLHYMPQAPSAEPPLEWPFPDLFSEPLCRGPILPLQANLTRKGGWLPTGSPSVILQDRYSG
subcellular localization of sLZIP and PPARγ2 (PPARγ2): localized in the nucleus together with PPARγ2 | DNA binding to CREB element (EMSA, cold competition) ([1]; 100-fold excess unlabeled CREB probes): not bound to the CREB element when there were competitors | DNA binding to CREB mutant probes (EMSA) ([1]; CREB mutant TGATGTCA→TGGGGTCA): not bound to CREB mutant probes | supershift (EMSA) ([1]; His antibodies added): supershifted | DNA binding to elements in the FABP4 enhancer region (EMSA) ([1]; His-sLZIP 3 μg, labeled probes): directly bound to a CREB region | DNA binding ability with CREB element (EMSA) ([1]; increasing amount of purified His-sLZIP): increased in a concentration-dependent manner
